Three sequences from paper PMC11428563 can be followed below.

This data set deals with VEGF as named in the paper; reagent listed as Human VEGFR2 / KDR Protein, His Tag, Acrobiosystems KDR-H5227 (human) (UniProt P35968). Put plainly: BLI. The following applies: BLI (Octet R4, anti-penta-His HIS1K sensors): protein loaded in phosphate buffer pH 7.4 (PlGF 2.5 ug/mL, VEGF 10 ug/mL), aptamers 0-20 uM in 1X Sartorius ….

pKd: −log10 of the molar value.

VEGF as named in the paper; reagent listed as Human VEGFR2 / KDR Protein, His Tag, Acrobiosystems KDR-H5227 (human), sequence (P35968 20-764): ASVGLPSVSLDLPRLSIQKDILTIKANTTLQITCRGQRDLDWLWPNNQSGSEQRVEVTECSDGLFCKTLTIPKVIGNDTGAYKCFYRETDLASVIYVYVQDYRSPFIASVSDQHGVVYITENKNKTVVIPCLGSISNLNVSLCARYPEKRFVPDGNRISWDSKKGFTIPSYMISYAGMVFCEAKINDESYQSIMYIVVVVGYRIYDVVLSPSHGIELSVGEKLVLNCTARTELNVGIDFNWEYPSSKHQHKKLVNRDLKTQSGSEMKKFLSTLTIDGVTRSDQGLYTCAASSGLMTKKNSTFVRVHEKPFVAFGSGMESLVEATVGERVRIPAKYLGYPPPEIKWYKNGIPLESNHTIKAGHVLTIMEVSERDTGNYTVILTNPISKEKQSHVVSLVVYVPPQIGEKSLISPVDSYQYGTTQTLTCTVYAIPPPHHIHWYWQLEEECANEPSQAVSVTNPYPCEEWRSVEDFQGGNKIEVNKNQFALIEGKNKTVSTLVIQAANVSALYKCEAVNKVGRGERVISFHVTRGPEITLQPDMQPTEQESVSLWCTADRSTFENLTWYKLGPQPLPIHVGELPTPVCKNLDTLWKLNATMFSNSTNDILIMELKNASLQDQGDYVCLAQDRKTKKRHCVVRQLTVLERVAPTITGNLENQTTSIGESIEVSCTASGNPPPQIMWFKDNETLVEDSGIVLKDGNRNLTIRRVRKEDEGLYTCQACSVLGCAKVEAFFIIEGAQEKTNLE

Take CGAAAACAC [VEGF-Apt2]: the negative-log Kd (pKd) was 9.33.
The same measure, in the same setting: as for CGAAGGGAA [VEGF-Apt1], the figure is 3.49.
Sequence GAAAGGCGA [VEGF-Apt3] gave a pKd (kon 9.164e1 1/Ms, koff 4.362e-7 1/s) of 8.17.

Broadly, the pKd is −log10 of the Kd, conventionally taken in molar units. A low value points to a high Kd.
